# According to the supplement of paper PMC9732359:
# ± gives the uncertainty stated by the source.
# Test: protein stability index of a GFP-peptide fusion (yeast GPS) (PSI 1-4); higher = more stable; sorted into four equal gates, so the index is relative within each strain
# In short: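 The protein stability index combines read frequencies across sorting gates, each weighted by its gate number and then summed. To obtain those frequencies, a pooled yeast library of GFP fusions to tiled 17-residue yeast protein peptides, on a plasmid also expressing Cherry, was grown to mid-log phase in leucine-free medium. The cells were sorted into four equal gates by GFP/Cherry ratio before plasmid amplification by PCR and Illumina sequencing.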
sequence,measurement,setting,value
AMNDKDLTMGQVGERIK [RPO21],protein stability index,doa10∆,3.31 ± 0.17
same,protein stability index,pdr5∆,3.26 ± 0.14
same,protein stability index,san1∆,2.82 ± 0.13
same,protein stability index,ubr1∆,3.08 ± 0.099
TEQQIEIPEGVTVSIKS [RPL9B],protein stability index,doa10∆,2.24 ± 0.062
same,protein stability index,pdr5∆,2.73 ± 0.071
same,protein stability index,san1∆,2.39 ± 0.067
same,protein stability index,ubr1∆,2.47 ± 0.059
KRSQKKHKKKHLKHENA [RPB4],protein stability index,doa10∆,3.03 ± 0.044
same,protein stability index,pdr5∆,2.96 ± 0.052
same,protein stability index,san1∆,3.09 ± 0.037
same,protein stability index,ubr1∆,3.25 ± 0.043
RMERIKDHLLLEEEFVS [RPT2],protein stability index,doa10∆,2.24 ± 0.12
same,protein stability index,pdr5∆,2.22 ± 0.097
same,protein stability index,san1∆,2.09 ± 0.13
same,protein stability index,ubr1∆,2.23 ± 0.1
SPQKFETNLQTFLPPLL [ECM29],protein stability index,doa10∆,3.01 ± 0.071
same,protein stability index,pdr5∆,2.95 ± 0.06
same,protein stability index,san1∆,3.2 ± 0.04
same,protein stability index,ubr1∆,2.92 ± 0.049
RMAKYLNNTHVISSGPL [RPC53],protein stability index,doa10∆,2.96 ± 0.13
same,protein stability index,pdr5∆,2.91 ± 0.16
same,protein stability index,san1∆,2.74 ± 0.074
same,protein stability index,ubr1∆,2.47 ± 0.069
KLQGLYENIPIYATFLN [YDL116W/NUP84],protein stability index,doa10∆,1.32 ± 0.063
same,protein stability index,pdr5∆,1.25 ± 0.058
same,protein stability index,san1∆,1.22 ± 0.14
same,protein stability index,ubr1∆,1.13 ± 0.059
QEGLITTTMLQLFSTFD [SSN2],protein stability index,doa10∆,2.58 ± 0.051
same,protein stability index,pdr5∆,2.57 ± 0.072
same,protein stability index,san1∆,2.55 ± 0.056
same,protein stability index,ubr1∆,2.61 ± 0.034
SGRCDGYILEGEELAFY [RPS8A],protein stability index,doa10∆,3.32 ± 0.12
same,protein stability index,pdr5∆,3.44 ± 0.12
same,protein stability index,san1∆,3.29 ± 0.093
same,protein stability index,ubr1∆,3.36 ± 0.074
FAQENSELAVATTSVMM [SRB6],protein stability index,doa10∆,2.82 ± 0.13
same,protein stability index,pdr5∆,3.13 ± 0.14
same,protein stability index,san1∆,3.13 ± 0.07
same,protein stability index,ubr1∆,3.33 ± 0.11
RLERRINLTKVTQKDIC [CSI1],protein stability index,doa10∆,2.88 ± 0.079
same,protein stability index,pdr5∆,2.82 ± 0.13
same,protein stability index,san1∆,3.18 ± 0.065
same,protein stability index,ubr1∆,3.29 ± 0.12
LGHKELKVRKGHIAKLM [RPB2],protein stability index,doa10∆,2.54 ± 0.066
same,protein stability index,pdr5∆,2.53 ± 0.064
same,protein stability index,san1∆,1.97 ± 0.1
same,protein stability index,ubr1∆,2.72 ± 0.047
CVEWRLPEIAKEIYTTL [YJR042W/NUP85],protein stability index,doa10∆,1.4 ± 0.075
same,protein stability index,pdr5∆,1.46 ± 0.071
same,protein stability index,san1∆,1.52 ± 0.11
same,protein stability index,ubr1∆,1.8 ± 0.066
ILGELKRVKSYMDKAKQ [LRP1],protein stability index,doa10∆,2.23 ± 0.079
same,protein stability index,pdr5∆,2.35 ± 0.082
same,protein stability index,san1∆,1.89 ± 0.12
same,protein stability index,ubr1∆,2.36 ± 0.065
TENVAQARIILNHILEK [YGR119C/NUP57],protein stability index,doa10∆,2.58 ± 0.081
same,protein stability index,pdr5∆,2.87 ± 0.08
same,protein stability index,san1∆,3.14 ± 0.067
same,protein stability index,ubr1∆,2.86 ± 0.061
SNKPCMGIVQDTLCGIR [RPO21],protein stability index,doa10∆,2.45 ± 0.065
same,protein stability index,pdr5∆,1.8 ± 0.067
same,protein stability index,san1∆,2.15 ± 0.073
same,protein stability index,ubr1∆,1.77 ± 0.088
DIFVYLTYDKDLTNNPQ [MTR3],protein stability index,doa10∆,2.1 ± 0.05
same,protein stability index,pdr5∆,1.98 ± 0.073
same,protein stability index,san1∆,2.35 ± 0.1
same,protein stability index,ubr1∆,2.28 ± 0.065
KAEKAEIRKRRASSLKA [RPS6A],protein stability index,doa10∆,2.9 ± 0.25
same,protein stability index,pdr5∆,3.48 ± 0.11
same,protein stability index,ubr1∆,3.06 ± 0.13
VHESLVTQSNILSQQFD [SRB8],protein stability index,doa10∆,2.71 ± 0.07
same,protein stability index,pdr5∆,3.09 ± 0.071
same,protein stability index,san1∆,2.78 ± 0.054
same,protein stability index,ubr1∆,3.02 ± 0.052
DYVVAPGVNREINSEMC [GRR1],protein stability index,pdr5∆,3.18 ± 0.2
same,protein stability index,san1∆,3.32 ± 0.082
same,protein stability index,ubr1∆,3.13 ± 0.064
IPMSKTIKDLVGGKSTV [FAS2],protein stability index,doa10∆,2.96 ± 0.11
same,protein stability index,pdr5∆,2.8 ± 0.089
same,protein stability index,san1∆,2.85 ± 0.072
same,protein stability index,ubr1∆,3.04 ± 0.06
SVYGLDDISRQVARTNL [ROX3],protein stability index,doa10∆,2.06 ± 0.058
same,protein stability index,pdr5∆,2.7 ± 0.059
same,protein stability index,san1∆,1.96 ± 0.1
same,protein stability index,ubr1∆,2.94 ± 0.046
AMEFIFGNSLICEDPET [SMC2],protein stability index,doa10∆,2.38 ± 0.073
same,protein stability index,pdr5∆,2.25 ± 0.054
same,protein stability index,san1∆,1.37 ± 0.094
same,protein stability index,ubr1∆,1.88 ± 0.049
KSSLYSAQDLLDKHERK [YIL149C/MLP2],protein stability index,doa10∆,3.05 ± 0.084
same,protein stability index,pdr5∆,3.01 ± 0.075
same,protein stability index,san1∆,2.83 ± 0.11
same,protein stability index,ubr1∆,3.15 ± 0.036
YVNDVAIYNNPTRIRTK [RRI2],protein stability index,doa10∆,1.81 ± 0.052
same,protein stability index,pdr5∆,2.54 ± 0.032
same,protein stability index,san1∆,2.19 ± 0.058
same,protein stability index,ubr1∆,2.4 ± 0.04
